Reference: patent publication US20250042973A1 (WUHAN UNIVERSITY, published 2025)

Biological target: the molecule itself
Test: self-association (homodimer) seen on SDS-PAGE / Western blot after nickel affinity purification
Protocol: In a process of Western Blot, Gel block of samples from the Electrophoresis was electro-transferred to NC membrane at 100 V for 90 min. The NC membrane was then washed with TBST for three times, and blocked with 5% skim milk on a shaker for 2 h. After blocking, the NC membrane was then washed with TBST for three times, and incubated with GPER antibody (Invitrogen, PA5-28647) overnight. After that, the NC membrane was then washed with TBST for three times, and incubated with secondary antibody (HRP-labeled Goat Anti-Rabbit IgG, ABclonal, AS014, BR) at room temperature for 3 h, washed with TBST for three times, visualized the result in the dark room with DAB.

B1: recombinant protein of GPER (G protein-coupled estrogen receptor) (receptor)
chain: LSHPLLGTALANGTGELSEHQQYVIGLFLSCLYTIFLFPIGFVGNILILVVNISFREKMTIPDLYFINLAVADLILVADSLIEVFNLHERYYDIAVLCTFMSLFLQVNMYSSVFFLTWMSFDRYIALARAMRCSLFRTKHHARLSCGLIWMASVSATLVPFTAVHLQHTDEACFCFADVREVQWLEVTLGFIVPFAIIGLCYSLIVRVLVRAHRMKKYTCTVCGYIYNPEDGDPDNGVNPGTDFKDIPDDWVCPLCGVGKDQFEEVEEHRGLRPRRQKALRMILAVVLVFFVCWLPENVFISVHLLQRTQPGAAPCKQSFRHAHPLTGHIVNLAAFSNSCLNPLIYSFLGETFRDKLRLYIEQKTNL
notes: The source plasmid is wild-type GPER (pDNR-Dual, BC011634, HsCD00005110); The purified protein is reported as monomer and dimer; also called GPER protein
B1: binds.
